The values below come from article PMC3846092.

In this assay the target is Cd^2+-bound Y82C-KcsA (UniProt P0A334). Briefly: crystal structure.

The stoichiometry N is the number of molecules, sites or subunits per partner or assembly.

“Cd^2+-bound Y82C-KcsA (from UniProt P0A334 1-160) (natural protein)” yielded a stoichiometry N of 4.
